Assay results as given in the supplement of paper PMC6379048.

Experiments:
Test in all cases: Kd (EC50 corrected by depletion factor)
FUBP1 = target: T1, FUBP1 (UniProt Q96AE4)
T1 sequence: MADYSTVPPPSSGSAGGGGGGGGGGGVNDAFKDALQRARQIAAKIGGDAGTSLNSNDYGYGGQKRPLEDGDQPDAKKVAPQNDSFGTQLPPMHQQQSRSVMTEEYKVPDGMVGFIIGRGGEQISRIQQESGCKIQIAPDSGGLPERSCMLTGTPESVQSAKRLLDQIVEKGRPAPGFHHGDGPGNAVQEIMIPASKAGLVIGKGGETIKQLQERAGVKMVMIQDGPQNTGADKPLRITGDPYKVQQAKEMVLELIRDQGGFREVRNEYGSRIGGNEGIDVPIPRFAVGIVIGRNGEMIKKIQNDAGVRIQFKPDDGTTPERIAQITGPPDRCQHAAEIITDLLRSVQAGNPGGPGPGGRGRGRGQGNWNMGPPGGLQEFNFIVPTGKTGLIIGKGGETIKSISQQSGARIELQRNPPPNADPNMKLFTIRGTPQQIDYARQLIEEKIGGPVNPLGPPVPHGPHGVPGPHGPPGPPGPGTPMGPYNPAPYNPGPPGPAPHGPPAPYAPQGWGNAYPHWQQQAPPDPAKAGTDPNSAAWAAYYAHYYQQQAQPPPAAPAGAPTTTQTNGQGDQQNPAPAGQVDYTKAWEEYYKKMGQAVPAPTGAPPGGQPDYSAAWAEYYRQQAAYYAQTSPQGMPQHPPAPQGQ
Procedure, shortened: (§1)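 HEK293-FT lysate (2.5 mg protein/well) was treated with free RNA oligos (0 nM to 30 μM) for 1 h at 4°C, then with the same oligos on NHS-Sepharose beads for 30 min at 4°C. Bound proteins were quantified by label-free LC-MS/MS relative to the control. EC50 came from a four-parameter log-logistic fit, and Kd is EC50 times a protein-dependent depletion factor.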

MCM4 = target: T2, MCM4 (UniProt P33991)
T2 sequence: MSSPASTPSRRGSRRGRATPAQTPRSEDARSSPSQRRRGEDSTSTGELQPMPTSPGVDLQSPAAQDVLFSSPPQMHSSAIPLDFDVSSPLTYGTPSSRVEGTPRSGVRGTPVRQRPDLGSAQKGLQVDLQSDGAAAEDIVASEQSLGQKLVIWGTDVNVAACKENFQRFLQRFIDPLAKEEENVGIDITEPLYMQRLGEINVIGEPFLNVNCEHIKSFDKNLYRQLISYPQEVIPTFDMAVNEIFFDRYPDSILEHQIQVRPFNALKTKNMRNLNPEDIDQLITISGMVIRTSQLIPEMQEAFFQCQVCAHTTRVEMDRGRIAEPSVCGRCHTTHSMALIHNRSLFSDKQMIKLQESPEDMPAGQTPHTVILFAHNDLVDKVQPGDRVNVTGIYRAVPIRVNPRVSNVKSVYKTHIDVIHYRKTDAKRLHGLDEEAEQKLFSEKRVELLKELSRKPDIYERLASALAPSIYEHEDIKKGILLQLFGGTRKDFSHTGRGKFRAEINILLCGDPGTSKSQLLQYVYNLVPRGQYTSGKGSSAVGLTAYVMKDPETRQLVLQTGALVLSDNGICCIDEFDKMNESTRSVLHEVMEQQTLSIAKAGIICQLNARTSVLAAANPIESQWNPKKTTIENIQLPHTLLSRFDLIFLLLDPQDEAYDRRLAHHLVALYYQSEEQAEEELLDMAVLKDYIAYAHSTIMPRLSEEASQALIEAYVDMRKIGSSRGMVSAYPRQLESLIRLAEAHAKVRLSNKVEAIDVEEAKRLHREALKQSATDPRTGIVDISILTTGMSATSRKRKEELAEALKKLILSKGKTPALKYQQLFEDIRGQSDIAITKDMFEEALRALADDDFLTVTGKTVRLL
Procedure, shortened: as §1

HNRNPM = target: T3, HNRNPM (UniProt P52272)
T3 sequence: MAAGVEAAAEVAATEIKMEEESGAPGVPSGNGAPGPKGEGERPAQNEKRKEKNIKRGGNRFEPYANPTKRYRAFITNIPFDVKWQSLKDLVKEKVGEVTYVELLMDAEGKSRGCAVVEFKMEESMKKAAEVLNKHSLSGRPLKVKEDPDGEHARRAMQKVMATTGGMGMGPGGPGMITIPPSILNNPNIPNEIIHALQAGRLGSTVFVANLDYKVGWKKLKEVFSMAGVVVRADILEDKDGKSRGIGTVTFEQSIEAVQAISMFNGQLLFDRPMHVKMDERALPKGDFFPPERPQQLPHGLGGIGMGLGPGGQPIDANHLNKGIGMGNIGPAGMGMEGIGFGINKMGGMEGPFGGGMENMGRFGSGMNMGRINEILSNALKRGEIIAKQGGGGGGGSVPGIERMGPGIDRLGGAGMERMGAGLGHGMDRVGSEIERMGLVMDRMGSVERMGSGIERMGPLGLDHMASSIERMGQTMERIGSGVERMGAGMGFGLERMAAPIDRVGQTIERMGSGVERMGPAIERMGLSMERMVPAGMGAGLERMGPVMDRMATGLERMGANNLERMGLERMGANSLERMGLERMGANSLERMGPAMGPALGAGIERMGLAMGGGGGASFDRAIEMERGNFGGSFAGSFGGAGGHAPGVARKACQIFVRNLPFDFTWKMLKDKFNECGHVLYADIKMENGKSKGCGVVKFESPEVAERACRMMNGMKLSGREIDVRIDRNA
Procedure, shortened: as §1

MRPS18B = MRPS18B (UniProt Q9Y676)
Procedure, shortened: as §1

Sequence	Kd (FUBP1)	Kd (MCM4)	Kd (HNRNPM)	Kd (MRPS18B)
AAUAAA	673 nM	25.8 nM	–	–
UAUUUAU	–	–	4410 nM	52.9 nM
